In CN116178545A (GUANGDONG FEIPENG PHARMACEUTICAL CO LTD, dated 2023) one finds Kd, binding result and EC50 data, which are given here for eight molecules.

Where a chain is given by its changes, count along the chain named.

One assay has as its target T1, hPD-L1-his (human, UniProt Q9NZQ7 19-238).
T1 construct: extracellular domain; also called 携带his标签的人PD-L1胞外区重组蛋白; not shown: his tag
Briefly: BLI (ForteBIO), hPD-L1-his on anti-Penta-HIS sensor. A general note: Biolayer interferometry detects binding as a change in optical thickness at a sensor tip.

For another assay, the target named is T2, 重组人PD-L2蛋白 (human, UniProt Q9BQ51 20-219).
T2 construct: The words 携带hFc标签的 stand before the first protein of the list; also called Acrobiosystem Cat.PD2-H5251
T2 sequence (looked up): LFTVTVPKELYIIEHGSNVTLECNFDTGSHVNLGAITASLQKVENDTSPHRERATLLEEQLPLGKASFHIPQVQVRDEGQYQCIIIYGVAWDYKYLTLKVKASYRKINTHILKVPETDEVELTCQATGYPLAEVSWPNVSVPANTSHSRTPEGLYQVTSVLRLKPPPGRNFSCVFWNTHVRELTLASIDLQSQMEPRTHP
Briefly: ELISA, protein coated at 1μg/ml.

The target in another assay is T3, 重组人PD-1蛋白(自产) (human, UniProt Q15116 25-167).
T3 construct: The words 携带hFc标签的 stand before the first protein of the list
Briefly: ELISA, protein coated at 1μg/ml.

A further assay concerns the target T4, 重组人ICOS蛋白 (human, UniProt Q9Y6W8 21-140).
T4 construct: The words 携带hFc标签的 stand before the first protein of the list; also called Acrobiosystem Cat.ICS-H5250
T4 sequence (looked up): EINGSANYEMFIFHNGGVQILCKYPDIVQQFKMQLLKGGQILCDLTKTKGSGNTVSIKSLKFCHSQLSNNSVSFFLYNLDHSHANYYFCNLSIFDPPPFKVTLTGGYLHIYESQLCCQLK
Briefly: ELISA, protein coated at 1μg/ml. (In general: An ELISA detects its analyte on a solid surface through an enzyme-linked reagent.)

The target in a further assay is T5, 重组人ICOSLG蛋白 (human, UniProt O75144 19-258).
T5 construct: The words 携带hFc标签的 stand before the first protein of the list; also called Acrobiosystem Cat.B72-H5254
T5 sequence (looked up): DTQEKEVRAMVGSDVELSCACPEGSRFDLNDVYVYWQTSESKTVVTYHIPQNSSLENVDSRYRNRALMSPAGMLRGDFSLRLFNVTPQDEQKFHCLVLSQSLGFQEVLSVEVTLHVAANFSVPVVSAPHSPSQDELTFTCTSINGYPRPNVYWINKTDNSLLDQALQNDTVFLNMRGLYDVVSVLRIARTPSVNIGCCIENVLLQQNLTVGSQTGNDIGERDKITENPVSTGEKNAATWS
Briefly: ELISA, protein coated at 1μg/ml.

The target in a further assay is T6, 重组人CD276蛋白 (human, UniProt Q5ZPR3-2 29-245).
T6 construct: The words 携带hFc标签的 stand before the first protein of the list; also called B7-H3; Acrobiosystem Cat.B73-H5253
T6 sequence (looked up): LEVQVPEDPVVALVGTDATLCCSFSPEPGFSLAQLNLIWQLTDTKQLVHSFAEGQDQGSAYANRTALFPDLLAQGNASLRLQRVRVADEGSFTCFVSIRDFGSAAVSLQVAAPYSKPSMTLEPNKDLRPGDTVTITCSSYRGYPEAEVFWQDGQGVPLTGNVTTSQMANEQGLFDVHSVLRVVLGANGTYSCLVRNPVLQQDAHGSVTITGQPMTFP
Briefly: ELISA, protein coated at 1μg/ml.

The target in a further assay is T7, 重组人CD86蛋白 (human, UniProt P42081 26-247).
T7 construct: The words 携带hFc标签的 stand before the first protein of the list; also called Acrobiosystem Cat.CD6-H5257
T7 sequence (looked up): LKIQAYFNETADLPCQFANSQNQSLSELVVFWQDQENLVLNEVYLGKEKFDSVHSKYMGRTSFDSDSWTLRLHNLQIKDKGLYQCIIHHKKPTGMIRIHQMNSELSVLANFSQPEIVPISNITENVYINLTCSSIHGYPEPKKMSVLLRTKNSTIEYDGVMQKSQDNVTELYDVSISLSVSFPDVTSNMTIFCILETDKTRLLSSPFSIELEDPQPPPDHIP
Briefly: ELISA, protein coated at 1μg/ml.

In a further assay the target is T8, 重组人CD28蛋白 (human, UniProt P10747 19-152).
T8 construct: The words 携带hFc标签的 stand before the first protein of the list; also called Acrobiosystem Cat.CD8-H525a
Briefly: ELISA, protein coated at 1μg/ml.

A further assay concerns the target T9, 重组人CTLA-4蛋白 (human, UniProt P16410 37-162).
T9 construct: The words 携带hFc标签的 stand before the first protein of the list; also called Acrobiosystem Cat.CT4-H5255
Briefly: ELISA, protein coated at 1μg/ml.

For another assay, the target named is T10, 小鼠PD-L1 (on CHO cells) (mouse, UniProt Q9EP73 19-290).
T10 construct: whole, on cells; also called CHO-mPD-L1稳定细胞株; 稳定表达全长小鼠PD-L1的CHO
Briefly: flow cytometry on CHO-mPD-L1 cells. On the technique in general: Flow cytometry measures light scatter and fluorescence of single cells or particles in a stream.

For the next assay, the target named is T11, 人PD-L1 (on cells) (human, UniProt Q9NZQ7 19-290).
T11 construct: whole, on cells; One molecule for human PD-L1 on CHO-hPD-L1, on IFNγ-stimulated A375 and on CHO-hPD-L1-OKT3 cells; the cell is named under assay; also called CHO-hPD-L1稳定细胞株; 稳定表达人PD-L1的CHO
Briefly: flow cytometry on IFNγ-stimulated A375 cells.

T3 sequence (Q15116 25-167): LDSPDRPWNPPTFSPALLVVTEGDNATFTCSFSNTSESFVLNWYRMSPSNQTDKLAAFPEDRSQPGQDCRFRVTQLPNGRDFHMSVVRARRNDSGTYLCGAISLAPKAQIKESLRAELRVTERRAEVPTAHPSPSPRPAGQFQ
T11 sequence (Q9NZQ7 19-290): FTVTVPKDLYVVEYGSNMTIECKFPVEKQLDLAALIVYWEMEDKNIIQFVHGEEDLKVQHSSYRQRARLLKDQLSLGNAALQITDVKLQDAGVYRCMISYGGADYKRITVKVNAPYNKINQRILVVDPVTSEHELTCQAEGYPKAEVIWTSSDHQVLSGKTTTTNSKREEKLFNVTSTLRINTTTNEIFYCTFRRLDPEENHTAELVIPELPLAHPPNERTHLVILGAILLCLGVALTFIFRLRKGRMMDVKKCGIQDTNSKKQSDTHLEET
T10 sequence (Q9EP73 19-290): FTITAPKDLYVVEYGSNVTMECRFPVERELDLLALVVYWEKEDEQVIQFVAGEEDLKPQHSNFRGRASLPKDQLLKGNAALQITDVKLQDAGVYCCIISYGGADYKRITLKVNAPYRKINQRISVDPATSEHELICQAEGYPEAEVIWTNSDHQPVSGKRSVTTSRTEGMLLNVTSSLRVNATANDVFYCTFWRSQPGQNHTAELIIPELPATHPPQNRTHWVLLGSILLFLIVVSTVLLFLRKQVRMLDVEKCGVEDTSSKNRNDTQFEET
T9 sequence (P16410 37-162): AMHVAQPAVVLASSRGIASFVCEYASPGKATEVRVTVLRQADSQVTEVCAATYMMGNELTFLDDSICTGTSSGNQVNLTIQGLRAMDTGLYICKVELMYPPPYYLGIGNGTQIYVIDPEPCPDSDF
T1 sequence (Q9NZQ7 19-238): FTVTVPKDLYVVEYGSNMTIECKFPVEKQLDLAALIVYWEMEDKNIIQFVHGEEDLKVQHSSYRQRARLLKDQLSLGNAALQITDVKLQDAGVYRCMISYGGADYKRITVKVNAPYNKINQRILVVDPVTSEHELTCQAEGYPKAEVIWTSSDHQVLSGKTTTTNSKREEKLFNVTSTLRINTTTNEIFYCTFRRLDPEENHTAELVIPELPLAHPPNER

B1: F016-870-hIgG1 (antibody, V domains shown)
VH: EVQLQESGPSLVKPSQTLSLTCSVTGDSITSGYWNWIRKFPGNKLEYMGYISYTGSTYQNPSLKSRISFTRDTSKNQYYLQLSSVTTEDTATYYCARSRAWIRTYFDYWGQGTTLTVSS
VL: EIVLTQSPALMAASPGEKVTITCSVSSSISSSNLHWYQQKSETSPKPWIYGTSNLASGVPVRFSGSGSGTSYSLTISSMEAEDAATYYCQQWSSYPLTFGAGTKLELKR
On to B1, for which the Kd (in general, the concentration at which binding is half-saturated) with hPD-L1-his was less than 0.001 nM.

B2: 176L1H2 (antibody, V domains shown)
VH: QVQLQESGPGLVKPSETLSLTCAVYGDSITSGYWNWIRKPPGKKLEYIGYISYTGSTYQNPSLKSRITMSRDTSKNQYYLKLSSVTAADTAVYYCARSRAWIRTYFDYWGQGTLVTVSS
VL: EIVLTQSPDFQSVTPKEKVTITCSVSSSISSSNLHWYQQKPDQSPKLWIYGTSNLASGVPSRFSGSGSGTDYTLTINSLEAEDAATYYCQQWSSYPLTFGQGTKLEIKR
notes: Whole humanized mAb expressed in 293 cells; detected with anti-human IgG; also called 抗人PD-L1人源化抗体176L1H2
On to B2, for which the binding result with 重组人PD-L2蛋白, with 重组人PD-1蛋白(自产), with 重组人ICOS蛋白, in the assay with 重组人ICOSLG蛋白, in the assay with 重组人CD276蛋白 and with 重组人CD86蛋白 was “no binding (tested: 10μg/ml)” in each case. The binding result with 重组人CD28蛋白 was “no binding (tested: 10μg/ml)”; with 重组人CTLA-4蛋白 it was “no binding (tested: 10μg/ml)”; with 小鼠PD-L1 (on CHO cells), “no binding (tested: 20μg/ml)”. The concentration giving a half-maximal response (EC50) (in general, the concentration giving half of the maximal effect) with 人PD-L1 (on cells) was approximately 0.2 nM.

B3: 176L2H2 (antibody, V domains shown)
VH: B2 VH
VL: B2 VL with L47P
notes: Whole humanized mAb expressed in 293 cells; detected with anti-human IgG; also called 抗人PD-L1人源化抗体176L2H2
Turning to B3, the binding result with 重组人PD-L2蛋白, in the assay with 重组人PD-1蛋白(自产), with 重组人ICOS蛋白, with 重组人ICOSLG蛋白, with 重组人CD276蛋白 and in the assay with 重组人CD86蛋白 was “no binding (tested: 10μg/ml)” each time. Further, the binding result with 重组人CD28蛋白 was “no binding (tested: 10μg/ml)”; in the assay with 重组人CTLA-4蛋白, “no binding (tested: 10μg/ml)”; in the assay with 小鼠PD-L1 (on CHO cells) it was “no binding (tested: 20μg/ml)”. This molecule had an EC50 with 人PD-L1 (on cells) of approximately 0.2 nM.

B4: 176L2H3 (antibody, V domains shown)
VH: B2 VH with M69F
VL: B2 VL with L47P
notes: Whole humanized mAb expressed in 293 cells; detected with anti-human IgG; also called 抗人PD-L1人源化抗体176L2H3
Turning to B4, the binding result with 重组人PD-L2蛋白, in the assay with 重组人PD-1蛋白(自产), with 重组人ICOS蛋白, with 重组人ICOSLG蛋白, with 重组人CD276蛋白 and with 重组人CD86蛋白 was “no binding (tested: 10μg/ml)” throughout. In addition, the binding result with 重组人CD28蛋白 was “no binding (tested: 10μg/ml)”; with 重组人CTLA-4蛋白, “no binding (tested: 10μg/ml)”; with 小鼠PD-L1 (on CHO cells) it was “no binding (tested: 20μg/ml)”. In the assay with 人PD-L1 (on cells), this molecule returned an EC50 of approximately 0.2 nM.

B5: 176L1H1 (antibody, V domains shown)
VH: B2 VH with K44G
VL: B2 VL
notes: Whole humanized mAb expressed in 293 cells, protein A purified; hIgG1 isotype control; detected with anti-human IgG; also called 抗人PD-L1人源化抗体176L1H1
B5: the binding result in the assay with 重组人PD-L2蛋白, with 重组人PD-1蛋白(自产), with 重组人ICOS蛋白, in the assay with 重组人ICOSLG蛋白, in the assay with 重组人CD276蛋白 and with 重组人CD86蛋白 was “no binding (tested: 10μg/ml)” throughout. Besides, the results for the binding result with 重组人CD28蛋白, in the assay with 重组人CTLA-4蛋白 and with 小鼠PD-L1 (on CHO cells) were “no binding (tested: 10μg/ml)”, “no binding (tested: 10μg/ml)” and “no binding (tested: 20μg/ml)”, respectively. Also, the EC50 with 人PD-L1 (on cells) is approximately 0.2 nM.

B6: 176L3H2 (antibody, V domains shown)
VH: B2 VH
VL: B2 VL with L47P, T73S
notes: Whole humanized mAb expressed in 293 cells; detected with anti-human IgG; also called 抗人PD-L1人源化抗体176L3H2
For B6, the binding result with 重组人PD-L2蛋白, with 重组人PD-1蛋白(自产), with 重组人ICOS蛋白, in the assay with 重组人ICOSLG蛋白, with 重组人CD276蛋白 and with 重组人CD86蛋白 was “no binding (tested: 10μg/ml)” throughout. Moreover, the results for the binding result with 重组人CD28蛋白, with 重组人CTLA-4蛋白 and with 小鼠PD-L1 (on CHO cells) were “no binding (tested: 10μg/ml)”, “no binding (tested: 10μg/ml)” and “no binding (tested: 20μg/ml)”, respectively. Further, the EC50 with 人PD-L1 (on cells) was approximately 0.2 nM.

B7: 176L2H1 (antibody, V domains shown)
VH: B2 VH with K44G
VL: B2 VL with L47P
notes: Whole humanized mAb expressed in 293 cells; detected with anti-human IgG; also called 抗人PD-L1人源化抗体176L2H1
On to B7, for which the binding result with 重组人PD-L2蛋白, with 重组人PD-1蛋白(自产), in the assay with 重组人ICOS蛋白, with 重组人ICOSLG蛋白, with 重组人CD276蛋白 and with 重组人CD86蛋白 was “no binding (tested: 10μg/ml)” throughout. Also, the binding result was “no binding (tested: 10μg/ml)” with 重组人CD28蛋白, “no binding (tested: 10μg/ml)” in the assay with 重组人CTLA-4蛋白 and “no binding (tested: 20μg/ml)” with 小鼠PD-L1 (on CHO cells). Besides, the EC50 in the assay with 人PD-L1 (on cells) was approximately 0.2 nM.

B8: 176L1H3 (antibody, V domains shown)
VH: B2 VH with M69F
VL: B2 VL
notes: Whole humanized mAb expressed in 293 cells; detected with anti-human IgG; also called 抗人PD-L1人源化抗体176L1H3
As to B8, the binding result with 重组人PD-L2蛋白, with 重组人PD-1蛋白(自产), in the assay with 重组人ICOS蛋白, with 重组人ICOSLG蛋白, with 重组人CD276蛋白 and with 重组人CD86蛋白 was “no binding (tested: 10μg/ml)” throughout. The binding result with 重组人CD28蛋白 is listed as “no binding (tested: 10μg/ml)”; with 重组人CTLA-4蛋白, “no binding (tested: 10μg/ml)”; with 小鼠PD-L1 (on CHO cells) it was “no binding (tested: 20μg/ml)”. In addition, the EC50 with 人PD-L1 (on cells) is approximately 0.2 nM.
